Consider five molecules from US20230242674A1 (LANKENAU INSTITUTE FOR MEDICAL RESEARCH, published 2023).

As usually defined, the EC50 (read off the curve) is the concentration that produces a half-maximal response.

B3: anti-human IDO2 monoclonal antibody 18-1 (antibody, V domains shown)
VH: QVRLQQPGAELVKPGASVKLSCKASGYTFTSYWMHWVKQRPGQGLEWIGEINPSTGRTNYNERFRSKATLTVDKFSTTAYMQFSSLTSEDSAVYYCVGLRFAYWGQGTLVSVSA
VL: DVVMTQTPLSLPVSFGDQVSISCRSSQSLADSYGNTYLSWYLHKPGQSPQLLIYGISNRFSGVPDRFSGSGSGTDFTLKISTIKPEDLGMYYCLQGTHQPLTFGAGTKLELKR
notes: Mouse hybridoma antibody; It was detected with an anti-mouse IgG Fc-specific secondary antibody; also called mAb 18-1

Test [1] addresses B3. Nature of the test: competitive ELISA; soluble peptide titrated against 1 µg/ml mAb in solution; competitor: coated recombinant human IDO2 (100 ng); plate-bound mAb detected with anti-mouse IgG Fc HRP and ABTS. The method, then: FIGS. 2A and 2B show results of a competitive ELISA that was developed to test the specificity of the antibodies. 100 ng of the recombinant human IDO2 protein was used to coat the ELISA plate. A constant amount (1 μg/ml) of IDO2 antibody was incubated in solution with specified concentrations of soluble peptide. If the antibody interacted with the soluble peptide, the antibody was then unavailable to bind the coated antigen. Anti-IDO2 Ig that bound the fixed protein was detected with an anti-mouse IgG FC-specific HRP secondary antibody and ABTS substrate. Data is presented as Mean±SD. […] FIG. 2A is a graph of a competitive ELISA comparing the recognition of the three anti-human IDO2 mAbs of FIG. 1 to the human epitope, plotting absorbance vs. epitope peptide concentration. FIG. 2B is a graph of a competitive ELISA comparing the recognition of the three anti-human IDO2 mAbs of FIG. 1 to the mouse epitope, plotting absorbance vs. epitope peptide concentration.
A competitive ELISA was developed to test the specificity of the antibodies. 100 ng of the recombinant human IDO2 protein was used to coat the ELISA plate. A constant amount (1 μg/ml) of IDO2 antibody was incubated in solution with specified concentrations of soluble peptide. […] Anti-IDO2 Ig that bound the fixed protein was detected with an anti-mouse IgG FC-specific HRP secondary antibody and ABTS substrate.
Background: An ELISA detects its analyte on a solid surface through an enzyme-linked reagent.

For test [2], the target named is T1, mouse IDO1 with V5 tag, expressed in T-REx cells (mouse, UniProt P28776 1-407).
T1 construct: Cell extract fractionated for the Western blot; also called murine IDO1; not shown: V5 tag
The experiment in a line: Western blot of T-REx cell extracts; HRP secondary antibody, chemiluminescence. The method, then:
(§1) FIG. 3 is a Western blot analysis using IDO-expressing Tᵣₑₓ cells. All IDO expressed proteins mouse and human IDO 1 and IDO2 contain a V5 tag. […] Cell extracts for IDO expressing cells or the parental T-REX line were prepared and fractionated as previously described (PMID: 17671174 & 26717206). Detection of indicated proteins was done using standard blotting methods, HRP conjugated secondary antibodies and chemiluminescence detection reagents.
(§2) A Western blot analysis was conducted using IDO-expressing Tᵣₑₓ cells. All IDO expressed proteins mouse and human IDO 1 and IDO2 containing a V5 tag. […] Cell extracts for IDO expressing cells or the parental T-REX line were prepared and fractionated as previously described (See US2019/0062452, incorporated by reference herein). Detection of indicated proteins was done using standard blotting methods, HRP conjugated secondary antibodies and chemiluminescence detection reagents.
(In general: A western blot detects proteins with antibodies after separation by electrophoresis.)

For test [3], the target named is T2, human IDO1 with V5 tag, expressed in T-REx cells (human, UniProt P14902 1-403).
T2 construct: Cell extract fractionated for the Western blot; not shown: V5 tag
Described as above. The method, then:
as §1, §2

Test [4] deals with T3, recombinant human IDO2 protein (human, UniProt Q6ZQW0 1-407, limits assumed).
T3 construct: also called human Indoleamine 2,3-Dioxygenase 2; human IDO2 recombinant protein
T3 sequence: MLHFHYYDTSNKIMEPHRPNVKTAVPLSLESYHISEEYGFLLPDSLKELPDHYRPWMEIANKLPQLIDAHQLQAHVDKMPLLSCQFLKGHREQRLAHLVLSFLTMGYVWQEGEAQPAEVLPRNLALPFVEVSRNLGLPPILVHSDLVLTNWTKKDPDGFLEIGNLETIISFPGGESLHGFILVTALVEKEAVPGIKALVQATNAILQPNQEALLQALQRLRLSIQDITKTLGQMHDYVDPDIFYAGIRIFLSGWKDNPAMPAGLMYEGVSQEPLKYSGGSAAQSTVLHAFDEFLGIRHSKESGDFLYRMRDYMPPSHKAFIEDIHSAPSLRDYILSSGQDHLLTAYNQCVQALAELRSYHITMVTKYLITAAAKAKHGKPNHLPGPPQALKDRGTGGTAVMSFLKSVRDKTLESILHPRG
Nature of the test: ELISA; plate coated with 100 ng recombinant human IDO2; detection with anti-mouse IgG Fc-specific HRP and ABTS. On the procedure: FIG. 1 is a graph showing the binding curves of three anti-human IDO2 monoclonal antibodies 13-3, 18-1 and 20-10 described herein and their binding concentrations vs. human IDO2 recombinant protein. Three cloned hybridomas were generated against the human IDO2 amino acids #331-351 (NP 919270; SEQ ID NO: 23). ELISA analysis compares the binding of the anti-human IDO2 antibodies (mAbs) to recombinant human IDO2 protein (100 ng of recombinant human IDO2 protein was used to coat the ELISA plate). Increasing concentrations of mAb were incubated with the coated protein and anti-IDO2 Ig that bound the fixed protein was detected with an anti-mouse IgG Fc-specific HRP secondary antibody and ABTS substrate. Data is presented as Mean±SD.
Three cloned hybridomas were generated against the human IDO2 amino acids #331-351 (NP 919270; SEQ ID NO: 23). ELISA analysis compares the binding of the anti-human IDO2 antibodies (mAbs) to recombinant human IDO2 protein (100 ng of recombinant human IDO2 protein was used to coat the ELISA plate). Increasing concentrations of mAb were incubated with the coated protein and anti-IDO2 Ig that bound the fixed protein was detected with an anti-mouse IgG Fc-specific HRP secondary antibody and ABTS substrate.

T2 sequence (P14902 whole entry): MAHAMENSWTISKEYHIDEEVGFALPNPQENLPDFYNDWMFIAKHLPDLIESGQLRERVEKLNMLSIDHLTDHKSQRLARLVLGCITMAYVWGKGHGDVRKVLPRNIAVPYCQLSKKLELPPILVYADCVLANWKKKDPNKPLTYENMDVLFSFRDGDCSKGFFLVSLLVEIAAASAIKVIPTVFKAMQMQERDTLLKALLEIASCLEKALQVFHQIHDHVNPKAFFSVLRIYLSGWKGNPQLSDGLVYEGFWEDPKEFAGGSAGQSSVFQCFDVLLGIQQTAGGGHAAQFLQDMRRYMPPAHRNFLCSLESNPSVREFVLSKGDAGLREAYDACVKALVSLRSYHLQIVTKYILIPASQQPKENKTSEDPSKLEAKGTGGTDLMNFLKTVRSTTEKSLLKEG
T1 sequence (P28776 whole entry): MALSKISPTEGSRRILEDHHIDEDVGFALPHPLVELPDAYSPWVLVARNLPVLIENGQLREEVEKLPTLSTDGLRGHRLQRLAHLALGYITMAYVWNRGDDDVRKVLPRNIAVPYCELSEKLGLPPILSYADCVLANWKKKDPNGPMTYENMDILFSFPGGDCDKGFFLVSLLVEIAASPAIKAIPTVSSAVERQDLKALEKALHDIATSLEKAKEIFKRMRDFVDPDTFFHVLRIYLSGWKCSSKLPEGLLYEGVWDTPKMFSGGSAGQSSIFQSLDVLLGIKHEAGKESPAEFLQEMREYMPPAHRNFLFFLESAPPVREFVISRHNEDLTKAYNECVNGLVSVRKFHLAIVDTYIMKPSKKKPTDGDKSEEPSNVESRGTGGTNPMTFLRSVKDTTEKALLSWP

For RDYILASGPGDCLMAYNQCVE [murine IDO2 epitope peptide (amino acids 331-351 of murine IDO2)], the “IC50 (read off the curve)” value in test [1] is ~9 µM.

B1: anti-human IDO2 monoclonal antibody 13-3 (antibody, V domains shown)
VH: QVRLQQPGAELVKPGASVKLSCKASGYTFTSYWMHWVKQRPGQGLEWIGEINPSTGRTNYNERFRSKATLTVDKFSTTAYMQFSSLTSEDSAVYYCVGLRFAYWGQGTLVSVSA
VL: DVVMTQTPLSLPVSFGDQVSISCRSSQSLADSYGNTYLSWYLHKPGQSPQLLIYGISNRFSGVPDRFSGSGSGTDFTLKISTIKPEDLGMYYCLQGTHQPLTFGAGTKLELKR
notes: Mouse hybridoma antibody raised against human IDO2 amino acids 331-351; It was detected with an anti-mouse IgG Fc-specific secondary antibody; also called mAb 13-3
With B1, the binding result in test [2] and in test [3] was “no binding” in each case. Further, in test [4], the concentration giving a half-maximal response (EC50 (read off the curve)) was ~0.01 µg/mL.

B2: anti-human IDO2 monoclonal antibody 20-10 (antibody, V domains shown)
VH: QVRLQQPGAELVKPGASVKLSCKASGYTFTSYWMHWVKQRPGQGLEWIGEINPSTGRTNYNERFRSKATLTVDKFSTTAYMQFSSLTSEDSAVYYCVGLRFAYWGQGTLVSVSA
VL: DVVMTQTPLSLPVSFGDQVSISCRSSQSLADSYGNTYLSWYLHKPGQSPQLLIYGISNRFSGVPDRFSGSGSGTDFTLKISTIKPEDLGMYYCLQGTHQPLTFGAGTKLELKR
notes: Mouse hybridoma antibody; It was detected with an anti-mouse IgG Fc-specific secondary antibody; also called mAb 20-10
As for B2, the binding result in test [2] and in test [3] was “no binding” throughout. Further, the “EC50 (read off the curve)” value in test [4] was ~0.02 µg/mL.

B3: the binding result in test [2] and in test [3] was “no binding” throughout. In addition, in test [4], the “EC50 (read off the curve)” value was ~0.02 µg/mL.

Consider RDYILSSGQDHLLTAYNQCVQ (also called hIDO2 Peptide) [Human Epitope], for which the “IC50 (read off the curve)” value in test [1] was ~7 µM.
